Tests used:
[1] = tested on: mouse aortic endothelial cells (MAE); assay: Endothelial tube formation on Matrigel; format: cell-based; conditions: for ED50: endothelial tube assay (FIGS. 30 and 31)
Description: To measure inhibition of endothelial tube formation, 320 μl of Matrigel (Collaborative Biomedical Products, Bedford, Mass., USA) was added to each well of a 24-well plate and allowed to polymerize (Grant, D. S. et al., 1994, Pathol. Res. Pract. 190:854-63). A suspension of 25,000 mouse aortic endothelial cells (MAE) in EGM-2 medium (Clonetics Corp., San Diego, Calif., USA) without antibiotic was passed into each well coated with Matrigel. The cells were treated with increasing concentrations of either Arresten, BSA, sterile PBS or the 7S domain. All assays were performed in triplicate. Cells were incubated for 24-48 hours at 37° C. and viewed using a CK2 Olympus microscope (3.3 ocular, 10× objective). The cells were then photographed using 400 DK coated TMAX film (Kodak). Cells were stained with diff-quik fixative (Sigma Chemical Company, St. Louis, Mo., USA) and photographed again. Ten fields were viewed, and the tubes counted and averaged.
Matrigel (Collaborative Biomedical Products, Bedford, Mass., USA) was added ([…]) to each well of a 24 well plate and allowed to polymerize (Grant, D. S. et al., supra). A suspension of 25,000 mouse aortic endothelial cells (MAE) in EGM-2 (Clonetics Corporation, San Diego, Calif., USA) medium without antibiotic was passed into each well coated with Matrigel. The cells were treated with either Canstatin, BSA, sterile PBS or α5-NC1 domain in increasing concentrations. All assays were performed in triplicate. Cells were incubated for 24-48 hours at 37° C. and viewed using a CK2 Olympus microscope (3.3 ocular, 10× objective). The cells were then photographed using 400 DK coated TMAX film (Kodak). Cells were stained with diff-quik fixative (Sigma Chemical Co., St. Louis, Mo., USA) and photographed again (Grant, D. S. et al., 1994, Pathol. Res. Pract. 190:854-63). Ten fields were viewed, tubes counted and averaged.
Matrigel (Collaborative Biomedical Prods., Bedford, Mass., USA) was added ([…]) to each well of a 24-well plate and allowed to polymerize (Grant, D. S. et al., 1994, Pathol. Res. Pract. 190:854-63). A suspension of 25,000 MAE cells in EGM-2 medium (Clonetics Corporation, San Diego, Calif., USA) without antibiotic was passed into each well coated with Matrigel (Grant, D. S. et al., 1994, Pathol. Res. Pract. 190:854-63). The cells were treated with either Tumstatin, BSA or 7S domain in increasing concentrations. Control cells were incubated with sterile PBS. All assays were performed in triplicate. Cells were incubated for 24-48 hours at 37° C. and viewed using a CK2 Olympus microscope (magnification of 3.3× ocular, 10× objective). The cells were then photographed using 400 DK coated TMAX film (Kodak). Cells were stained with diff-quik fixative (Sigma Chemical Co.) and photographed again (Grant, D. S. et al., 1994, Pathol. Res. Pract. 190:854-63). Ten fields were viewed, and the number of tubes were counted by two investigators unaware of the experimental protocols, and averaged.
Fragments and mutants of Arresten and Canstatin were also made according to the Pseudomonas elastase digestions of Mariyama et al. (1992, J. Biol. Chem. 267:1253-58). The digest was resolved by gel filtration HPLC and the resultant fragments were analyzed by SDS-PAGE and evaluated in the endothelial tube assay described above. These fragments included a 12 kDa fragment of Arresten, an 8 kDa fragment of Arresten, and a 10 kDa fragment of Canstatin. In addition, two fragments of Tumstatin (‘333’ and ‘334’) were generated by PCR cloning.

[2] = tested on: C-PAE cells; assay: BrdU incorporation proliferation assay; format: cell-based, bovine; conditions: 0-2.0 μM
Description: The anti-proliferative affect of Tumstatin-44-131 on C-PAE cells was examined via BrdU incorporation assay. This assay uses bromodeoxyuridine (BrdU) instead of ^3H-thymidine as a thymidine analog. BrdU is incorporated into newly synthesized DNA strands in actively proliferating cells. The BrdU incorporated into the cells can then be detected immunochemically. The assay was conducted using the BrdU proliferation assay kit (CalbioChem, San Diego, Calif., USA) according to the manufacturer's instructions, with some modifications. C-PAE cells were seeded onto 96-well plates in DMEM containing 10% FCS. The next day, the medium was replaced with DMEM containing 2% FCS with or without E. Coli-expressed Tumstatin-44-131, or full-length Tumstatin expressed in 293 cells. The plates were then incubated for 46 hours, and the cells were then pulsed for two hours with 10 nM BrdU. The cells and DNA were then fixed to the wells, reacted with anti-BrdU primary and secondary antibodies, and then developed with a calorimetric reaction supplied with the kit. The plates were then read at OD450 on a plate reader (Molecular Dynamics, Sunnyvale, Calif., USA).

[3] = tested on: MLEC β3−/−; assay: Protein synthesis and cap-dependent translation in β3-integrin deficient endothelial cells; format: cell-based, mouse; conditions: 4.5 μM; rapamycin 100 ng/ml
Source text: Therefore, to evaluate the effect of tumstatin peptides on cap-dependent and independent translation, endothelial cells were isolated from lungs of 12-week-old mice that were deficient in the expression of αvβ3 integrin (i.e., 3 integrin-deficient mice), and also their wild-type counterparts (Hodivala-Dilke, K. M. et al., 1999, J. Clin. Invest. 103:229-38). Briefly, ICAM-2 expressing MLEC were enriched using rat anti-mouse ICAM-2 (# 01800D, PharMingen, San Diego, Calif., USA) conjugated to magnetic beads (Dynabeads M-450, Dynal, Oslo, Norway). MLEC were maintained in 40% Ham's F-12,40% DME-Low Glucose, 20% FBS supplemented with heparin, endothelial mitogen (Biomedical Technologies, Inc., Cambridge, Mass., USA), glutamine and penicillin/streptomycin. Wild-type and β3-integrin-deficient mouse embryonic fibroblasts were prepared (Hodivala-Dilke, K. M. et al., 1999, J. Clin. Invest. 103:229-38). MEFs were maintained in DMEM containing 10% FBS. MLEC were characterized for homogeneity by morphological observations and by immunofluorescence staining for endothelial-specific markers. Cells between passage 3 and 6 were used for the experiments.

[4] = tested on: HUVECs; assay: Endothelial tube formation on Matrigel; format: cell-based, human
Description: Tumstatin-44-131 was also found to inhibit endothelial tube formation, as shown by Matrigel assay. The Matrigel assay was performed as described in the examples above. Briefly, HUVECS were allowed to form tubes on Matrigel-coated plates incubated with or without 5 μg/ml E. Coli-expressed Tumstatin-44-131. BSA-treated cells and yeast-expressed human endostatin (5 and 20 μg/ml) was used as controls. […] The average percentage tube branch formation after treatment was 22.7±3.1 for the BSA treatment, 2.1±2.0 for Tumstatin-44-131 treatment, while the 5 μg/ml and 20 μg/ml endostatin produced an average of 19.4±3.0 and 7.5±6.0, respectively.

B1: Tumstatin: NC1 domain of the α3 chain of type IV collagen, residues 1-244 (SEQ ID NO:10) (protein, listed as Homo sapiens)
chain: GLKGKRGDSGSPATWTTRGFVFTRHSQTTAIPSCPEGTVPLYSGFSFLFVQGNQRAHGQDLGTLGSCLQRFTTMPFLFCNVNDVCNFASRNDYSYWLSTPALMPMNMAPITGRALEPYISRCTVCEGPAIAIAVHSQTTDIPPCPHGWISLWKGFSFIMFTSAGSEGTGQALASPGSCLEEFRASPFLECHGRGTCNYYSNSYSFWLASLNPERMFRKPIPSTVKAGELEKIISRCQVCMKKRH
concentration of maximum inhibition [1]: 800 to 1000 ng/mL | Percentage of tube formation after treatment ([1]; 1 mg/ml of protein, produced in 293 cells): 14.0±4.0 | ED50 [1]: 0.55 µg/mL | incorporation of BrdU [2]: decreased incorporation of BrdU | cap-dependent protein synthesis in αvβ3 integrin deficient (β3−/−) endothelial cells [3]: did not have any effect

B2: Tumstatin-44-131: residues 44 to 131 of full-length Tumstatin (SEQ ID NO:33) (protein)
chain: FSFLFVQGNQRAHGQDLGTLGSCLQRFTTMPFLFCNVNDVCNFASRNDYSYWLSTPALMPMNMAPITGRALEPYISRCTVCEGPAIAI
modifications: Tumstatin-45-132 (amino acids 45-132 of SEQ ID NO10)
incorporation of BrdU [2]: decreased incorporation of BrdU | average percentage tube branch formation ([4]; 5 μg/ml, BSA 22.7±3.1): 2.1±2.0

B3: endostatin: tumor associated angiogenesis inhibitor used as comparator (protein, UniProt P39060 1572-1754, looked up)
Endostatin: HSHRDFQPVLHLVALNSPLSGGMRGIRGADFQCFQQARAVGLAGTFRAFLSSRLQDLYSIVRRADRAAVPIVNLKDELLFPSWEALFSGSEGPLKPGARIFSFDGKDVLRHPTWPQKSVWHGSDPNGRRLTESYCETWRTEAPSATGQASSLLGGRLLGQSAASCHHAYIVLCIENSFMTASK
modifications: Endostatin
average percentage tube branch formation ([4]; 5 μg/ml, BSA 22.7±3.1): 19.4±3.0 | average percentage tube branch formation ([4]; 20 μg/ml endostatin): 7.5±6.0 | cap-dependent protein synthesis in αvβ3 integrin deficient (β3−/−) endothelial cells [3]: did not exhibit this property

B4: Canstatin: NC1 domain of the α2 chain of Type IV collagen (SEQ ID NO:6) (protein, listed as Homo sapiens)
chain: VSIGYLLVKHSQTDQEPMCPVGMNKLWSGYSLLYFEGQEKAHNQDLGLAGSCLARFSTMPFLYCNPGDVCYYASRNDKSYWLSTTAPLPMMPVAEDEIKPYISRCSVCEAPAIAIAVHSQDVSIPHCPAGWRSLWIGYSFLMHTAAGDEGGGQSLVSPGSCLEDFRATPFIECNGGRGTCHYYANKYSFWLTTIPEQSFQGSPSADTLKAGLIRTHISRCQVCMKNL
inhibition of tube formation ([1]; 1 mg of Canstatin protein produced in 293 cells): near complete inhibition | ED50 [1]: 0.4 µg/mL

Reference: patent publication US7387779B2, “Anti-angiogenic proteins and fragments and methods of use thereof” (Beth Israel Deaconess Medical Center, priority 1998, dated 2008)
